Assay results as given in patent US20250145711A1 (Janssen / Centocor, published 2025).
Positions count from the first letter of the chain named. Numbers in names are those of the source.

B1: PS3B1391 (bispecific antibody, human IgG1, kappa, L234A L235A)
chain: EIVLTQSPATLSASPGERVTLSCSASSSVSYMNWYQQKPGQAPRRWIYDSSKLASGVPARFSGSGSGRDYTLTISSLEPEDFAVYYCQQWSRNPPTFGGGTKVEIKGGSEGKSSGSGSESKSTGGSQVQLVQSGAEVKKPGSSVKVSCKASGYTFTRSTMHWVKQAPGQGLEWIGYINPSSAYTNYNQKFQGRVTLTADKSTSTAYMELSSLRSEDTAVYYCASPQVHYDYAGFPYWGQGTLVTVSSEPKSSDKTHTCPPCPAPEAAGGPSVFLFPPKPKDTLMISRTPEVTCVVVSVSHEDPEVKFNWYVDGVEVHNAKTKPREEQYNSTYRVVSVLTVLHQDWLNGKEYKCKVSNKALPAPIEKTISKAKGQPREPQVYTLPPSREEMTKNQVSLWCLVKGFYPSDIAVEWESNGQPENNYKTTPPVLDSDGSFFLYSKLTVDKSRWQQGNVFSCSVMHEALHNHYTQKSLSLSPGK
heavy: EVQLVESGGGLVKPGGSLRLSCVASGFTFSFYSMNWVRQAPGKGLDWVSSISSSGNYIYYADSVKGRFTISRDNAKNSLHLHMNSLKAEDTAMYFCARSYSGSYDAFDFWGQGTMVTVSSASTKGPSVFPLAPSSKSTSGGTAALGCLVKDYFPEPVTVSWNSGALTSGVHTFPAVLQSSGLYSLSSVVTVPSSSLGTQTYICNVNHKPSNTKVDKKVEPKSCDKTHTCPPCPAPEAAGGPSVFLFPPKPKDTLMISRTPEVTCVVVSVSHEDPEVKFNWYVDGVEVHNAKTKPREEQYNSTYRVVSVLTVLHQDWLNGKEYKCKVSNKALPAPIEKTISKAKGQPREPQVYTLPPSREEMTKNQVSLSCAVKGFYPSDIAVEWESNGQPENNYKTTPPVLDSDGSFFLVSKLTVDKSRWQQGNVFSCSVMHEALHNRFTQKSLSLSPGK
light: EIVMTQSPGTLSLSPGERATLSCRASQSVSSSFLAWYQQKPGQAPRLLISGASSRATGIPDRFSVSGSGTDFTLTISRLEPEDFAVYYCQQYGVSPWTFGQGTKVEIKRTVAAPSVFIFPPSDEQLKSGTASVVCLLNNFYPREAKVQWKVDNALQSGNSQESVTEQDSKDSTYSLSSTLTLSKADYEKHKVYACEVTHQGLSSPVTKSFNRGEC
notes: HC 1: N-term scFv LH CD3B2030 N106A; HC 2: N-term Fab PSMHB49SC1133_011A11_1; LC1 is given as NA; also called PS3B1391.002
B2: PS3B1396 (bispecific antibody, human IgG1, lambda, L234A L235A)
chain: B1 chain
heavy: EVQLVESGGGLVQPGGSLRLSCAASGFTFSSYAMSWVRQAPGKGLEWVSAISGGIGSTYYADSVKGRFTISRDNSKNTLWLQMNSLRAEDTAVYYCAKDAVGATPYYFDYWGQGTLVTVSSASTKGPSVFPLAPSSKSTSGGTAALGCLVKDYFPEPVTVSWNSGALTSGVHTFPAVLQSSGLYSLSSVVTVPSSSLGTQTYICNVNHKPSNTKVDKKVEPKSCDKTHTCPPCPAPEAAGGPSVFLFPPKPKDTLMISRTPEVTCVVVSVSHEDPEVKFNWYVDGVEVHNAKTKPREEQYNSTYRVVSVLTVLHQDWLNGKEYKCKVSNKALPAPIEKTISKAKGQPREPQVYTLPPSREEMTKNQVSLSCAVKGFYPSDIAVEWESNGQPENNYKTTPPVLDSDGSFFLVSKLTVDKSRWQQGNVFSCSVMHEALHNRFTQKSLSLSPGK
light: QSVLTQPPSVSAAPGQKVTISCSGSSSNIGINYVSWYQQLPGTAPKLLIYDNNKRPSGIPDRFSGSKSGTSATLGITGLQTGDEADYYCGTWDSSLSAVVFGGGTKLTVLGQPKAAPSVTLFPPSSEELQANKATLVCLISDFYPGAVTVAWKADSSPVKAGVETTTPSKQSNNKYAASSYLSLTPEQWKSHRSYSCQVTHEGSTVEKTVAPTECS
notes: HC1 (Knob3): CD3B2030-N106A-scFv LH, HC2 (Hole3): PSMB896-G100A-Fab; LC1 is given as NA; also called PS3B1396.002
B3: PS3B1508 (bispecific antibody, human IgG1, lambda, L234A L235A)
chain: DIQMTQSPSSLSASVGDRVTITCRARQSIGTAIHWYQQKPGKAPKLLIKYASESISGVPSRFSGSGSGTDFTLTISSLQPEDFATYYCQQSGSWPYTFGQGTKLEIKGGSEGKSSGSGSESKSTGGSEVQLVESGGGLVKPGGSLRLSCAASGFTFSRYNMNWVRQAPGKGLEWVSSISTSSNYIYYADSVKGRFTFSRDNAKNSLDLQMSGLRAEDTAIYYCTRGWGPFDYWGQGTLVTVSSEPKSSDKTHTCPPCPAPEAAGGPSVFLFPPKPKDTLMISRTPEVTCVVVSVSHEDPEVKFNWYVDGVEVHNAKTKPREEQYNSTYRVVSVLTVLHQDWLNGKEYKCKVSNKALPAPIEKTISKAKGQPREPQVYTLPPSREEMTKNQVSLWCLVKGFYPSDIAVEWESNGQPENNYKTTPPVLDSDGSFFLYSKLTVDKSRWQQGNVFSCSVMHEALHNHYTQKSLSLSPGK
heavy: B2 heavy
light: B2 light
notes: HC1 (Knob3): CD3W245-LH-scFv; HC2 (Hole3-RF) PSMB896-G100A-Fab-RF: IgG1 AAS; LC1 is given as NA; also called PS3B1508.003
B4: PS3B1505 (bispecific antibody, human IgG1, lambda, L234A L235A)
heavy 1: QVQLQQSGPRLVRPSQTLSLTCAISGDSVFNNNAAWSWIRQSPSRGLEWLGRTYYRSKWLYDYAVSVKSRITVNPDTSRNQFTLQLNSVTPEDTALYYCARGYSSSFDYWGQGTLVTVSSASTKGPSVFPLAPSSKSTSGGTAALGCLVKDYFPEPVTVSWNSGALTSGVHTFPAVLQSSGLYSLSSVVTVPSSSLGTQTYICNVNHKPSNTKVDKKVEPKSCDKTHTCPPCPAPEAAGGPSVFLFPPKPKDTLMISRTPEVTCVVVSVSHEDPEVKFNWYVDGVEVHNAKTKPREEQYNSTYRVVSVLTVLHQDWLNGKEYKCKVSNKALPAPIEKTISKAKGQPREPQVYTLPPSREEMTKNQVSLTCLVKGFYPSDIAVEWESNGQPENNYKTTPPVLDSDGSFLLYSKLTVDKSRWQQGNVFSCSVMHEALHNHYTQKSLSLSPGK
light 1: QSALTQPASVSGSPGQSITISCTGTSSNIGTYKFVSWYQQHPDKAPKVLLYEVSKRPSGVSSRFSGSKSGNTASLTISGLQAEDQADYHCVSYAGSGTLLFGGGTKLTVLGQPKAAPSVTLFPPSSEELQANKATLVCLISDFYPGAVTVAWKADSSPVKAGVETTTPSKQSNNKYAASSYLSLTPEQWKSHRSYSCQVTHEGSTVEKTVAPTECS
heavy 2: B2 heavy with S370T, A372L, V411Y, K413R, R439H, F440Y
light 2: B2 light
notes: HC1 CD3B376-Fab x HC2 PSMB896-G100A IgG1 DuoBody; also called PS3B1505.001
B5: CD3B1128 (scFv)
scFv: QVVLTQSPAIMSAFPGEKVTMTCSASSSVSYMNWYQQKSGTSPKRWIYDSSKLASGVPARFSGSGSGTSYSLTISSMETEDAATYYCQQWSRNPPTFGGGTKLQITGGSEGKSSGSGSESKSTGGSQVQLQQSGAELARPGASVKMSCKASGYTFTRSTMHWVKQRPGQGLEWIGYINPSSAYTNYNQKFKDKATLTADKSSSTAYMQLSSLTSEDSAVYYCASPQVHYDYNGFPYWGQGTLVTVSA
notes: also called Murine LH; murine Cris-7 scFv (LH)

Key:
[1] = biological target: T1, recombinant cynomolgus PSMA (cynomolgus, UniProt A0A2K5VNZ0 44-750); assay: SPR (Biacore 8K), antibody captured on anti-Fc, PSMA in solution; average of 3
T1 construct: also called cy PSMA; cyno PSMA
Protocol: (§1) The binding affinity of anti-PSMA to the recombinant human or cynomolgus PSMA was determined by surface plasmon resonance (SPR) using a Biacore 8K instrument (ELN PSMA-00721). The antibodies were captured on a goat anti-Fc antibody-modified C1 chip and titrated with 3-fold serial dilutions of PSMA antigen spanning concentrations of 100 nM to 3.7 nM (human PSMA) or […] 22.2-600 nM for cyno PSMA. The association and dissociation were monitored for 3 and 60 minutes, respectively, using a flow rate of 50 μL/min. Raw binding data was referenced by subtracting the analyte binding signals from blanks and analyzed using a 1:1 Langmuir binding model by the Biacore Insight evaluation software to obtain the kinetics which were used to calculate the binding affinity. The anti-PSMA were captured using an anti-human Fc antibody and the antigens were injected in solution.

[2] = biological target: T2, recombinant human PSMA (human, UniProt Q04609 44-750); assay: SPR (Biacore 8K), antibody captured on anti-Fc, PSMA in solution; average of 2
T2 construct: also called hu PSMA; prostate-specific membrane antigen
T2 sequence (Q04609 44-750 limits assumed): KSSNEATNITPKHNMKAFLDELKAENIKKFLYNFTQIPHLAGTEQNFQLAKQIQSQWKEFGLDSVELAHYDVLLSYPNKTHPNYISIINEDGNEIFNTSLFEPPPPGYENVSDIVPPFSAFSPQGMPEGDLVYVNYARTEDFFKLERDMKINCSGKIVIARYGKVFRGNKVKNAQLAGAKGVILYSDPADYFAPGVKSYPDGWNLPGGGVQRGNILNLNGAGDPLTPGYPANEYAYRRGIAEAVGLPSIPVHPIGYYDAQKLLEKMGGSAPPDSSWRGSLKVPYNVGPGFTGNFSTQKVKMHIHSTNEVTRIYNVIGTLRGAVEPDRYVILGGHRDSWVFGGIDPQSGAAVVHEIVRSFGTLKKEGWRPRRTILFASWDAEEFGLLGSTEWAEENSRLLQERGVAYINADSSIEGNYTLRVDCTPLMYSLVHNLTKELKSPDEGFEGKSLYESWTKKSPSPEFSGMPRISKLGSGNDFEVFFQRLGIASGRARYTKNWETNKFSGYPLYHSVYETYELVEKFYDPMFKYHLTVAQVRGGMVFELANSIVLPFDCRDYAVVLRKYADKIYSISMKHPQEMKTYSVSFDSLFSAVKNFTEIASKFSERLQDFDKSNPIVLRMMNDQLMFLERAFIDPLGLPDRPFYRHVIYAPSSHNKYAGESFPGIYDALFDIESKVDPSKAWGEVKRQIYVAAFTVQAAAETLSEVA
Protocol: as §1

[3] = biological target: T1, recombinant cynomolgus PSMA; assay: as above
Protocol: as §1

[4] = biological target: T3, TRCW5 antigen (CD3δε-Fc-Avi) (biotinylated (site not stated)); assay: ELISA, E. coli scFv on biotinylated TRCW5
T3 construct: also called recombinant CD3
T3 sequence (chain, as listed by the source mutant limits assumed): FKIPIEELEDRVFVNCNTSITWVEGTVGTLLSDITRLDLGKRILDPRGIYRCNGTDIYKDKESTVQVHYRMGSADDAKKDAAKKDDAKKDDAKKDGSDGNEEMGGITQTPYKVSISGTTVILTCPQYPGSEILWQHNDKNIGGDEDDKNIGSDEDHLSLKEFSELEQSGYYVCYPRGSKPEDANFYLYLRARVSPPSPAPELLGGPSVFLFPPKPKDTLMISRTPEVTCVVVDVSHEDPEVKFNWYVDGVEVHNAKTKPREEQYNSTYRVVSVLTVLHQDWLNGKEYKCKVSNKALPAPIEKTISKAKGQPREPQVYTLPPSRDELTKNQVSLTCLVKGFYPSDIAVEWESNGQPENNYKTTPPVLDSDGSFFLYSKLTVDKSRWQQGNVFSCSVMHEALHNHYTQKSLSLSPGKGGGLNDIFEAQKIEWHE
Protocol: Briefly, DNA was transformed into an E. coli expression vector to generate scFv molecules having a C-terminal HA-tag, and cells were plated on 2×YT/Carb/2% Glucose grown overnight at 37 C. Colonies were picked and transferred 50 ul of overnight growth cultures to new plates containing 500 ul of 2×YT/Carb/0.1% Glucose, grown for 6-7 hr, and combined with 50 ul 2×YT medium containing 1×carbenicillin & 12×IPTG. Cultures were incubated with shaking ˜600 RPM 30° C. overnight. Streptavidin coated plates were bound with 50 μL of biotinylated TRCW5 antigen (CD3δε-Fc-Avi, SEQ ID NO: 39) at the concentrations indicated in the ELISA graph for 45 min at room temperature with shaking (FIG. 1, FIG. 3, FIG. 4) followed by washing 3× with 1×TBST. Plates were blocked with 200 ul 3% Milk in 1×TBST for ˜45 mins at room temperature followed by washing 3× with 1×TBST. E. coli cultures were harvested by centrifugation at […] for 10 mins 4° C. and 50 μL of supernatant was transferred into CD3-coated plates followed by incubation at 4 C for 45 min. Plates were washed 3× with 1×TBST. Bound scFv was detected with Chicken Polyclonal Anti-HA-HRP (ab1190) [1:1000] for ˜45 mins RT and luminescence detected with chemi-luminescent substrate.

[5] = biological target: T3, TRCW5 antigen (CD3δε-Fc-Avi); assay: ELISA after heat

Binder	Kd [1]	koff [1]	kon [1]	Kd [2]	koff [2]	kon [2]	Kd [3]	koff [3]	kon [3]	EC50 [4]	% Retained 55° C. [5]	% Retained 60° C. [5]	% Retained 65° C. [5]
B1	0.126 nM	1.96e-05 s⁻¹	157000 M⁻¹ s⁻¹	0.1 nM	4.8e-05 s⁻¹	480000 M⁻¹ s⁻¹	–	–	–	–	–	–	–
B2	–	–	–	0.395 nM	8.82e-05 s⁻¹	224000 M⁻¹ s⁻¹	5.07 nM	0.0019 s⁻¹	587000 M⁻¹ s⁻¹	–	–	–	–
B3	–	–	–	0.382 nM	8.89e-05 s⁻¹	232000 M⁻¹ s⁻¹	2.2 nM	0.00323 s⁻¹	1.46e+06 M⁻¹ s⁻¹	–	–	–	–
B4	–	–	–	0.393 nM	9.1e-05 s⁻¹	232000 M⁻¹ s⁻¹	5.01 nM	0.00124 s⁻¹	429000 M⁻¹ s⁻¹	–	–	–	–
B5	–	–	–	–	–	–	–	–	–	~0.437 nM	10%	2%	3%
